{"source": "paper PMC9881170", "key": {"[1]": {"target": "55S mitoribosome (crude);mtIF2;mtIF3 (bovine (liver);Homo sapiens;Homo sapiens) (UniProt P46199+Q9H2K0)", "sequence (P46199 whole entry, looked up, tested part not stated)": "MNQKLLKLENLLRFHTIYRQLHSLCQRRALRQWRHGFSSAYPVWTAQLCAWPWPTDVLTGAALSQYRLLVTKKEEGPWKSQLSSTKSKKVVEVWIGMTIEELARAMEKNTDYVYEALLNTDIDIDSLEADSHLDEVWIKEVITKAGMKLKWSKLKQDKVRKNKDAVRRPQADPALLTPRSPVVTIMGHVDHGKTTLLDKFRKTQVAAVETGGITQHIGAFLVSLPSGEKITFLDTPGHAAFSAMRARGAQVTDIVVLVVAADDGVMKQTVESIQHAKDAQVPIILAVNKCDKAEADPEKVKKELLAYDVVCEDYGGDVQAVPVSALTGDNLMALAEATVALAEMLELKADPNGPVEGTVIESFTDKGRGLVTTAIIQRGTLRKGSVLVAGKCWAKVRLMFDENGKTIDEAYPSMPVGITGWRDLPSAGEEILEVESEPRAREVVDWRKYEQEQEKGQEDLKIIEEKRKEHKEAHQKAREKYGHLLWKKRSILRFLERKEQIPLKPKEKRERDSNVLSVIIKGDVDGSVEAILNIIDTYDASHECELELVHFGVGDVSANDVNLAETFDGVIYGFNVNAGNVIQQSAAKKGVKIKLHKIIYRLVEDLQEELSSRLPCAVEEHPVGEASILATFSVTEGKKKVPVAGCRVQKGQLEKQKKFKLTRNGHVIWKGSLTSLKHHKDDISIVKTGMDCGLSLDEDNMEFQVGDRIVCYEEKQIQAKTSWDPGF", "test": "co-sedimentation", "conditions": "200 nM 55S or 28S, 240 nM mtIF2, 240 nM mtIF3, 240 nM fMet-tRNAfMet, 400 nM mRNA, 37 C 30 min (then ice 15 min for mRNA binding), filter wash with 20 mM Mg2+ …"}, "[2]": {"target": "55S mitoribosome (re-associated);mtIF2;mtIF3 (Homo sapiens (HEK293S TetR GnTI-);Homo sapiens;Homo sapiens) (UniProt P46199+Q9H2K0)", "test": "sucrose gradient co-sedimentation, Cy3 fluorescence", "conditions": "+ E. coli fMet-tRNAfMet; 200 nM 55S or 28S, 240 nM mtIF2, 240 nM mtIF3, 240 nM fMet-tRNAfMet, 400 nM mRNA; 37 C 30 min (then ice 15 min for mRNA binding); filter wash with 20 mM Mg2+ …"}, "[3]": {"target": "55S mitoribosome, subunits crosslinked;mtIF2 (Homo sapiens (HEK293S TetR GnTI-);Homo sapiens) (UniProt P46199)", "test": "sucrose gradient co-sedimentation, Cy3 fluorescence", "conditions": "+ E. coli fMet-tRNAfMet; no mtIF3; 200 nM 55S or 28S, 240 nM mtIF2, 240 nM mtIF3, 240 nM fMet-tRNAfMet, 400 nM mRNA; 37 C 30 min (then ice 15 min for mRNA binding); filter wash with 20 mM Mg2+ …"}}}
{"substance": "fMet-tRNAfMet (35S)", "values": [{"measurement": "binding signal (% of 55S with [35S]-fMet-tRNAfMet)", "setting": "[1]; + 30-nt leaderless mRNA S2, EF-Tu, Phe-tRNAPhe", "result": 27}]}
{"substance": "AUGGCACAUGCAGCGCAAGUAGGUCUACAA [MTCO2 mRNA first 30 nt]", "values": [{"measurement": "binding signal (% of 55S with mRNA bound)", "setting": "[2]", "result": 50}, {"measurement": "binding signal (% of 55S with mRNA bound)", "setting": "[3]", "result": 25}]}
{"substance": "Phe-tRNAPhe", "values": [{"measurement": "binding signal (% of 55S with [3H]-Phe-tRNAPhe)", "setting": "[1]; + EF-Tu, 30-nt leaderless mRNA S2, fMet-tRNAfMet", "result": 22}]}
